Article PMC3236213, “A Novel N-Acetylglutamate Synthase Architecture Revealed by the Crystal Structure of the Bifunctional Enzyme from Maricaulis maris” (PLoS ONE, 2011)
Blank lines part the entries; values can stand above or below the molecule they belong to.

Key:
mmNAGS/K [1] = target: T1, mmNAGS/K (Maricaulis maris, UniProt Q0ASS9); experiment: NAGS assay, NAG quantified by LC-MS; format: biochemical; conditions: allosteric inhibitor of NAGS activity, not of NAGK activity; 2.5 mM AcCoA, 10 mM L-glutamate, 50 mM Tris-HCl pH 8.5; 293 K in Methods, 310 K in Figure 1 legend
T1 construct: gene Mmar10_0365; full length (AAK domain 1-290, linker Gly291, NAT domain 292-441); E. coli Rosetta 2; homotetramer
T1 sequence (Q0ASS9 1-441): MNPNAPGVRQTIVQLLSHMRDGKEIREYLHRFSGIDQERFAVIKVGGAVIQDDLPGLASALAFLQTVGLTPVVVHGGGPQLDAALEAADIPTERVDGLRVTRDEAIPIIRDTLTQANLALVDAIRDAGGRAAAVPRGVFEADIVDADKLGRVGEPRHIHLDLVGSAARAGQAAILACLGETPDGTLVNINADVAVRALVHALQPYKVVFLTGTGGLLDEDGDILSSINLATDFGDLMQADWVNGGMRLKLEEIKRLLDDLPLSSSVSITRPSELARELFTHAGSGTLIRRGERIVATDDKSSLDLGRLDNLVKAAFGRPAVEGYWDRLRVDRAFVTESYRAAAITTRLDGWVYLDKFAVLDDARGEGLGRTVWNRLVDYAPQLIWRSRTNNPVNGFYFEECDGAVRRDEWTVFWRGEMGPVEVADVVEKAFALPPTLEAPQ

mmNAGS/K [2] = target: T1, mmNAGS/K; experiment: X-ray crystallography (native, […] A); format: binding; conditions: modeled in residual density at NAT domain of subunits A and Y; 100 mM glutamate before crystallization; pH 6.5
[3] = target: Maricaulis maris bifunctional N-acetylglutamate synthase/kinase (mmNAGS/K), wild type (Maricaulis maris MCS10); experiment: cross-linking; 0.15 ug protein with 0.25 ug dimethyl suberimidate in 50 ul of 200 mM triethanolamine pH 8.25, three hours at 298 K; SDS-PAGE (NuPAGE 4-12% Bis-Tris), Coomassie blue
[4] = target: Maricaulis maris bifunctional N-acetylglutamate synthase/kinase (mmNAGS/K), wild type (Maricaulis maris MCS10); experiment: crystal structure; trigonal form P3(1)21 of native mmNAGS/K, 4.3 A, two subunits per asymmetric unit, molecular replacement with the A-X dimer; 23% PEG400, 100 mM Bis-Tris pH 6.5, 1 mM 5-amino-2,4,6-triiodoisophthalic acid
[5] = target: Maricaulis maris bifunctional N-acetylglutamate synthase/kinase (mmNAGS/K), wild type (Maricaulis maris MCS10); experiment: crystal structure; orthorhombic form P2(1)2(1)2(1) of mmNAGS/K, four subunits per asymmetric unit; protein incubated beforehand with 25 mM CoA and 100 mM glutamate; native: 25% PEG3350, 200 mM NaCl, 100 mM Bis-Tris pH 6.5; Se-Met mutant: 25% PEG3350, 200 mM sodium malonate pH 7.0
[6] = target: Se-Met substituted mmNAGS/K triple mutant (I106M, I294M, L376M) (Maricaulis maris MCS10); experiment: as above
[7] = target: Se-Met substituted xcNAGS/K (hexagonal crystal form) (Xanthomonas campestris); experiment: crystal structure; hexagonal form P6(2)22 of Se-Met xcNAGS/K, one subunit per asymmetric unit, molecular replacement with mmNAGS/K; tetramer made by crystallographic symmetry
[8] = target: Xanthomonas campestris bifunctional N-acetylglutamate synthase/kinase (xcNAGS/K), recombinant (Xanthomonas campestris); experiment: cross-linking; 0.15 ug protein with 0.25 ug dimethyl suberimidate in 50 ul of 200 mM triethanolamine pH 8.25, three hours at 298 K; SDS-PAGE (NuPAGE 4-12% Bis-Tris), Coomassie blue

Molecule: N=C(N)NCCC[C@H](N)C(=O)O [L-arginine]
- fold inhibition of NAGS activity at 1.0 mM (mmNAGS/K [1]): 14 fold

Molecule: N[C@@H](CCC(=O)O)C(=O)O [L-glutamate]
- X-ray crystallography (native, 3.1 A) (mmNAGS/K [2]): residual electron density in subunits A and Y at this site that can be modeled as L-glutamate

- stoichiometry N [3]: 4
- stoichiometry N [4]: 4
- stoichiometry N [5]: 4
Molecule: Maricaulis maris bifunctional N-acetylglutamate synthase/kinase (mmNAGS/K), wild type (enzyme)

- stoichiometry N [6]: 4
Molecule: Se-Met substituted mmNAGS/K triple mutant (I106M, I294M, L376M) (enzyme)

Molecule: Se-Met substituted xcNAGS/K (hexagonal crystal form) (enzyme)
- stoichiometry N [7]: 4

Molecule: Xanthomonas campestris bifunctional N-acetylglutamate synthase/kinase (xcNAGS/K), recombinant (enzyme)
- stoichiometry N [8]: 4
